The text below walks through data of patent US20240261333A1, “NOVEL TARGETS FOR ENHANCING ANTI-TUMOR IMMUNITY” (THE BROAD INSTITUTE, INC., priority 2021, published 2024).

The assay concerns the target T1, B3GNT2 (Homo sapiens, UniProt Q9NY97).
T1 construct: The respective ORFs of candidate genes [CD274 (NM_014143), MCL1 (NM_021960), JUNB (NM_002229), and B3GNT2 (NM_006577)] were synthesized; expressed in transfected cells; host or cells: A375 melanoma cells (lentiviral ORF overexpression)
T1 sequence (Q9NY97 1-397): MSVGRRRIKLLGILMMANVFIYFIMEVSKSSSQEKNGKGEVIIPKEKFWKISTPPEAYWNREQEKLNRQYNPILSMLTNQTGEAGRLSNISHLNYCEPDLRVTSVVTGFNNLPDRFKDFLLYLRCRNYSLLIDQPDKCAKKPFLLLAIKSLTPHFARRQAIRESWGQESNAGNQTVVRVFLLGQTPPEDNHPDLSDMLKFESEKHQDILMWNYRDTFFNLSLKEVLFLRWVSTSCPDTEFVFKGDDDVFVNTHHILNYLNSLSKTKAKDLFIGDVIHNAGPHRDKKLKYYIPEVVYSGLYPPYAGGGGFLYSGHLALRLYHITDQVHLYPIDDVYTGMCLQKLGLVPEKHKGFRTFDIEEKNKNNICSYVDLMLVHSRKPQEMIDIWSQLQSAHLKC
As to the kind of experiment: Co-IP of FLAG-tagged B3GNT2 followed by mass spectrometry. It is filed as cell-based. On the set-up: C-term IgG / C-term flag: unit not given here. Particulars: mass spectrometry count, unit not given; for C-term flag / N-term FLAG: Co-IP with FLAG antibody; for C-term flag / C-term IgG: C-terminally FLAG-tagged B3GNT2; for N-term FLAG / N-term IgG: N-terminally FLAG-tagged B3GNT2; for C-term IgG / N-term IgG: Co-IP with IgG control antibody. In a few lines:
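FLAG-tagged B3GNT2 immunoprecipitated from cell lysate (HEPES, 1% Triton X-100, 150 mM NaCl) with anti-FLAG versus […], overnight at 4° C, then captured on Protein A/G magnetic beads for 4 h. Two biological replicates per condition. Peptides fractionated and analyzed by nano-LC on an Orbitrap Elite in data-dependent mode.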

B1: TUBB6 (protein)
chain: MREIVHIQAGQCGNQIGTKFWEVISDEHGIDPAGGYVGDSALQLERINVYYNESSSQKYVPRAALVDLEPGTMDSVRSGPFGQLFRPDNFIFGQTGAGNNWAKGHYTEGAELVDAVLDVVRKECEHCDCLQGFQLTHSLGGGTGSGMGTLLISKIREEFPDRIMNTFSVMPSPKVSDTVVEPYNATLSVHQLVENTDETYCIDNEALYDICFRTLKLTTPTYGDLNHLVSATMSGVTTSLRFPGQLNADLRKLAVNMVPFPRLHFFMPGFAPLTSRGSQQYRALTVPELTQQMFDARNMMAACDPRHGRYLTVATVFRGPMSMKEVDEQMLAIQSKNSSYFVEWIPNNVKVAVCDIPPRGLKMASTFIGNSTAIQELFKRISEQFSAMFRRKAFLHWFTGEGMDEMEFTEAESNMNDLVSEYQQYQDATANDGEEAFEDEEEEIDG
Regarding B1, the C-term flag was 42, the “N-term FLAG” value was determined as 63, the “C-term IgG” value worked out at 0 and the “N-term IgG” value is recorded as 0.

B2: ZC3HAV1 (protein, UniProt Q7Z2W4 2-902, looked up)
Zinc finger CCCH-type …: ADPEVCCFITKILCAHGGRMALDALLQEIALSEPQLCEVLQVAGPDRFVVLETGGEAGITRSVVATTRARVCRRKYCQRPCDNLHLCKLNLLGRCNYSQSERNLCKYSHEVLSEENFKVLKNHELSGLNKEELAVLLLQSDPFFMPEICKSYKGEGRQQICNQQPPCSRLHICDHFTRGNCRFPNCLRSHNLMDRKVLAIMREHGLNPDVVQNIQDICNSKHMQKNPPGPRAPSSHRRNMAYRARSKSRDRFFQGSQEFLASASASAERSCTPSPDQISHRASLEDAPVDDLTRKFTYLGSQDRARPPSGSSKATDLGGTSQAGTSQRFLENGSQEDLLHGNPGSTYLASNSTSAPNWKSLTSWTNDQGARRKTVFSPTLPAARSSLGSLQTPEAVTTRKGTGLLSSDYRIINGKSGTQDIQPGPLFNNNADGVATDITSTRSLNYKSTSSGHREISSPRIQDAGPASRDVQATGRIADDADPRVALVNDSLSDVTSTTSSRVDDHDSEEICLDHLCKGCPLNGSCSKVHFHLPYRWQMLIGKTWTDFEHMETIEKGYCNPGIHLCSVGSYTINFRVMSCDSFPIRRLSTPSSVTKPANSVFTTKWIWYWKNESGTWIQYGEEKDKRKNSNVDSSYLESLYQSCPRGVVPFQAGSRNYELSFQGMIQTNIASKTQKDVIRRPTFVPQWYVQQMKRGPDHQPAKTSSVSLTATFRPQEDFCFLSSKKYKLSEIHHLHPEYVRVSEHFKASMKNFKIEKIKKIENSELLDKFTWKKSQMKEEGKLLFYATSRAYVESICSNNFDSFLHETHENKYGKGIYFAKDAIYSHKNCPYDAKNVVMFVAQVLVGKFTEGNITYTSPPPQFDSCVDTRSNPSVFVIFQKDQVYPQYVIEYTEDKACVIS
Take B2: the C-term flag is 4, the “N-term FLAG” value is 3, the “C-term IgG” value worked out at 0 and the “N-term IgG” value is 0.
